The values below come from the Immune Epitope Database (IEDB).

Experiment [1] deals with HLA-A*01:01. The experiment can be described thus: IEDB peptide-MHC binding, purified MHC/direct/fluorescence; filed as Kd, often an IC50 or EC50 that approximates it; ≥ and ≤ were set here for values at or beyond the usual limits of such assays. As to conditions: source organism: Orthohantavirus andesense.
Experiment [2] addresses HLA-A*25:01. Described as above. As to conditions: source organism: Orthohantavirus tulaense.
Experiment [3] concerns the target HLA-A*29:02. Described as above. As to conditions: source organism: Orthohantavirus tulaense.
Experiment [4] addresses HLA-A*80:01. The experiment is described as above. Conditions: source organism: Orthohantavirus andesense.
The target of experiment [5] is HLA-B*07:02. Described as above. As to conditions: source organism: Orthohantavirus tulaense.
The target of experiment [6] is HLA-B*40:01. Described as above. Conditions: source organism: Orthohantavirus tulaense.
In experiment [7] the target is HLA-B*51:01. Described as above. As to conditions: source organism: Orthohantavirus tulaense.
Experiment [8] addresses HLA-A*02:02. The experiment can be described thus: IEDB peptide-MHC binding, purified MHC/competitive/radioactivity; ≥ and ≤ were set here for values at or beyond the usual limits of such assays. Conditions: source organism: Hepatitis C virus (isolate H77).
Experiment [9] deals with HLA-A*02:03. Described as above. As to conditions: source organism: Hepatitis C virus (isolate H77).
For experiment [10], the target named is HLA-A*02:06. The description is as above. Conditions: source organism: Hepatitis C virus (isolate H77).
Experiment [11] addresses HLA-A*01:01. The experiment can be described thus: IEDB peptide-MHC binding, purified MHC/competitive/radioactivity; filed as Kd, often an IC50 or EC50 that approximates it; ≥ and ≤ were set here for values at or beyond the usual limits of such assays. Conditions: source organism: Hepatitis C virus (isolate 1).
Experiment [12] concerns the target HLA-A*02:02. Described as above. Conditions: source organism: Hepatitis C virus (isolate 1).
For experiment [13], the target named is HLA-A*02:03. The experiment is described as above. Conditions: source organism: Hepatitis C virus (isolate 1).
The target of experiment [14] is HLA-A*02:06. Described as above. As to conditions: source organism: Hepatitis C virus (isolate 1).
In experiment [15] the target is HLA-A*03:01. Described as above. Conditions: source organism: Hepatitis C virus (isolate 1).
Experiment [16] deals with HLA-A*11:01. The experiment is described as above. Conditions: source organism: Hepatitis C virus (isolate 1).
Experiment [17] addresses HLA-A*31:01. The experiment is described as above. As to conditions: source organism: Hepatitis C virus (isolate 1).
Experiment [18] deals with HLA-A*33:01. The experiment is described as above. Conditions: source organism: Hepatitis C virus (isolate 1).
For experiment [19], the target named is HLA-A*68:01. Described as above. Conditions: source organism: Hepatitis C virus (isolate 1).
For experiment [20], the target named is HLA-A*68:02. The description is as above. As to conditions: source organism: Hepatitis C virus (isolate 1).
The target in experiment [21] is HLA-B*07:02. The experiment is described as above. Conditions: source organism: Hepatitis C virus (isolate 1).
Experiment [22] addresses HLA-B*08:01. The description is as above. As to conditions: source organism: Hepatitis C virus (isolate 1).
In experiment [23] the target is HLA-B*18:01. The experiment is described as above. Conditions: source organism: Hepatitis C virus (isolate 1).
The target of experiment [24] is HLA-B*35:01. The experiment is described as above. Conditions: source organism: Hepatitis C virus (isolate 1).
For experiment [25], the target named is HLA-B*40:01. The experiment is described as above. Conditions: source organism: Hepatitis C virus (isolate 1).
Experiment [26] addresses HLA-B*40:02. The experiment is described as above. Conditions: source organism: Hepatitis C virus (isolate 1).
The target of experiment [27] is HLA-B*44:02. The description is as above. As to conditions: source organism: Hepatitis C virus (isolate 1).
The target of experiment [28] is HLA-B*44:03. The experiment is described as above. Conditions: source organism: Hepatitis C virus (isolate 1).
Experiment [29] addresses HLA-B*51:01. The description is as above. Conditions: source organism: Hepatitis C virus (isolate 1).
Experiment [30] has as its target HLA-B*53:01. Described as above. Conditions: source organism: Hepatitis C virus (isolate 1).
Experiment [31] deals with HLA-B*54:01. The experiment is described as above. Conditions: source organism: Hepatitis C virus (isolate 1).
Experiment [32] has as its target HLA-A*01:01. The experiment can be described thus: IEDB peptide-MHC binding, purified MHC/competitive/fluorescence; filed as Kd, often an IC50 or EC50 that approximates it; ≥ and ≤ were set here for values at or beyond the usual limits of such assays. As to conditions: source organism: Human immunodeficiency virus 1.
Experiment [33] addresses HLA-A*02:01. The description is as above. Conditions: source organism: Human immunodeficiency virus 1.
The target in experiment [34] is HLA-A*02:03. Described as above. Conditions: source organism: Human immunodeficiency virus 1.
Experiment [35] concerns the target HLA-A*02:06. The description is as above. Conditions: source organism: Human immunodeficiency virus 1.
The target of experiment [36] is HLA-A*03:01. The experiment is described as above. Conditions: source organism: Human immunodeficiency virus 1.
Experiment [37] concerns the target HLA-A*11:01. Described as above. Conditions: source organism: Human immunodeficiency virus 1.
The target of experiment [38] is HLA-A*26:02. The experiment is described as above. Conditions: source organism: Human immunodeficiency virus 1.
For experiment [39], the target named is HLA-A*26:03. Described as above. As to conditions: source organism: Human immunodeficiency virus 1.
Experiment [40] addresses HLA-A*30:01. The experiment is described as above. Conditions: source organism: Human immunodeficiency virus 1.
In experiment [41] the target is HLA-A*31:01. The experiment is described as above. Conditions: source organism: Human immunodeficiency virus 1.
Experiment [42] deals with HLA-A*68:02. The description is as above. Conditions: source organism: Human immunodeficiency virus 1.
The target of experiment [43] is HLA-A*69:01. The experiment is described as above. As to conditions: source organism: Human immunodeficiency virus 1.
Experiment [44] concerns the target HLA-B*08:02. The experiment is described as above. As to conditions: source organism: Human immunodeficiency virus 1.
For experiment [45], the target named is HLA-B*15:17. Described as above. Conditions: source organism: Human immunodeficiency virus 1.

With ATATWFQYY, the dissociation constant Kd (as a rule, the concentration at which binding is half-saturated) was 0.0163 µM in experiment [1]; ≥ 20 µM in experiment [2]; ≤ 0.001 µM in experiment [3]; 0.0142 µM in experiment [4]; ≥ 20 µM in experiment [5]; ≥ 20 µM in [6]. In experiment [7], the Kd was ≥ 20 µM.
Turning to KLVALGINAV, the IC50 (usually the midpoint of a concentration-inhibition curve) amounted to 0.015 µM in [8], 0.075 µM in experiment [9] and 0.0037 µM in experiment [10]. Also, the Kd was 9.01 µM in [11]; 0.0827 µM in [12]; 0.0111 µM in [13]; 0.00394 µM in experiment [14]; 16.6 µM in experiment [15]; ≥ 69.8 µM in [16]. Also, the Kd was 13.6 µM in experiment [17]; ≥ 70 µM in experiment [18]; ≥ 70.2 µM in [19]; 12.8 µM in experiment [20]; 2.17 µM in [21]; ≥ 70 µM in experiment [22]. The Kd in [23] was ≥ 70.5 µM; in [24], ≥ 69.9 µM; in [25] it was ≥ 69.6 µM; in experiment [26], ≥ 70.8 µM; in [27], ≥ 70.2 µM; in experiment [28], ≥ 70.1 µM. For the same sequence, the Kd is ≥ 47 µM in experiment [29], ≥ 69.9 µM in experiment [30] and 19.2 µM in experiment [31].
As for VLYCVHQEI, the dissociation constant Kd is ≥ 20 µM in experiment [32]; 0.007 µM in [33]; 0.0088 µM in [34]; 0.00405 µM in [35]; ≥ 20 µM in experiment [36]; ≥ 20 µM in experiment [37]. Further, the Kd in [38] was ≥ 20 µM; in [39], ≥ 20 µM; in experiment [40] it was 12.3 µM; in [41], ≥ 20 µM; in experiment [42], 0.233 µM; in experiment [43], 0.824 µM. Moreover, the dissociation constant Kd in experiment [44] was ≥ 20 µM; in experiment [45], 0.345 µM.
